Results reported in patent US20140087395A1.

Biological target: pig asialo-thyroglobulin (pig) (UniProt F1RRV3)
Assay: cell-based or functional assay

Sequence of UniProt F1RRV3 (F1RRV3 20-2692 limits assumed): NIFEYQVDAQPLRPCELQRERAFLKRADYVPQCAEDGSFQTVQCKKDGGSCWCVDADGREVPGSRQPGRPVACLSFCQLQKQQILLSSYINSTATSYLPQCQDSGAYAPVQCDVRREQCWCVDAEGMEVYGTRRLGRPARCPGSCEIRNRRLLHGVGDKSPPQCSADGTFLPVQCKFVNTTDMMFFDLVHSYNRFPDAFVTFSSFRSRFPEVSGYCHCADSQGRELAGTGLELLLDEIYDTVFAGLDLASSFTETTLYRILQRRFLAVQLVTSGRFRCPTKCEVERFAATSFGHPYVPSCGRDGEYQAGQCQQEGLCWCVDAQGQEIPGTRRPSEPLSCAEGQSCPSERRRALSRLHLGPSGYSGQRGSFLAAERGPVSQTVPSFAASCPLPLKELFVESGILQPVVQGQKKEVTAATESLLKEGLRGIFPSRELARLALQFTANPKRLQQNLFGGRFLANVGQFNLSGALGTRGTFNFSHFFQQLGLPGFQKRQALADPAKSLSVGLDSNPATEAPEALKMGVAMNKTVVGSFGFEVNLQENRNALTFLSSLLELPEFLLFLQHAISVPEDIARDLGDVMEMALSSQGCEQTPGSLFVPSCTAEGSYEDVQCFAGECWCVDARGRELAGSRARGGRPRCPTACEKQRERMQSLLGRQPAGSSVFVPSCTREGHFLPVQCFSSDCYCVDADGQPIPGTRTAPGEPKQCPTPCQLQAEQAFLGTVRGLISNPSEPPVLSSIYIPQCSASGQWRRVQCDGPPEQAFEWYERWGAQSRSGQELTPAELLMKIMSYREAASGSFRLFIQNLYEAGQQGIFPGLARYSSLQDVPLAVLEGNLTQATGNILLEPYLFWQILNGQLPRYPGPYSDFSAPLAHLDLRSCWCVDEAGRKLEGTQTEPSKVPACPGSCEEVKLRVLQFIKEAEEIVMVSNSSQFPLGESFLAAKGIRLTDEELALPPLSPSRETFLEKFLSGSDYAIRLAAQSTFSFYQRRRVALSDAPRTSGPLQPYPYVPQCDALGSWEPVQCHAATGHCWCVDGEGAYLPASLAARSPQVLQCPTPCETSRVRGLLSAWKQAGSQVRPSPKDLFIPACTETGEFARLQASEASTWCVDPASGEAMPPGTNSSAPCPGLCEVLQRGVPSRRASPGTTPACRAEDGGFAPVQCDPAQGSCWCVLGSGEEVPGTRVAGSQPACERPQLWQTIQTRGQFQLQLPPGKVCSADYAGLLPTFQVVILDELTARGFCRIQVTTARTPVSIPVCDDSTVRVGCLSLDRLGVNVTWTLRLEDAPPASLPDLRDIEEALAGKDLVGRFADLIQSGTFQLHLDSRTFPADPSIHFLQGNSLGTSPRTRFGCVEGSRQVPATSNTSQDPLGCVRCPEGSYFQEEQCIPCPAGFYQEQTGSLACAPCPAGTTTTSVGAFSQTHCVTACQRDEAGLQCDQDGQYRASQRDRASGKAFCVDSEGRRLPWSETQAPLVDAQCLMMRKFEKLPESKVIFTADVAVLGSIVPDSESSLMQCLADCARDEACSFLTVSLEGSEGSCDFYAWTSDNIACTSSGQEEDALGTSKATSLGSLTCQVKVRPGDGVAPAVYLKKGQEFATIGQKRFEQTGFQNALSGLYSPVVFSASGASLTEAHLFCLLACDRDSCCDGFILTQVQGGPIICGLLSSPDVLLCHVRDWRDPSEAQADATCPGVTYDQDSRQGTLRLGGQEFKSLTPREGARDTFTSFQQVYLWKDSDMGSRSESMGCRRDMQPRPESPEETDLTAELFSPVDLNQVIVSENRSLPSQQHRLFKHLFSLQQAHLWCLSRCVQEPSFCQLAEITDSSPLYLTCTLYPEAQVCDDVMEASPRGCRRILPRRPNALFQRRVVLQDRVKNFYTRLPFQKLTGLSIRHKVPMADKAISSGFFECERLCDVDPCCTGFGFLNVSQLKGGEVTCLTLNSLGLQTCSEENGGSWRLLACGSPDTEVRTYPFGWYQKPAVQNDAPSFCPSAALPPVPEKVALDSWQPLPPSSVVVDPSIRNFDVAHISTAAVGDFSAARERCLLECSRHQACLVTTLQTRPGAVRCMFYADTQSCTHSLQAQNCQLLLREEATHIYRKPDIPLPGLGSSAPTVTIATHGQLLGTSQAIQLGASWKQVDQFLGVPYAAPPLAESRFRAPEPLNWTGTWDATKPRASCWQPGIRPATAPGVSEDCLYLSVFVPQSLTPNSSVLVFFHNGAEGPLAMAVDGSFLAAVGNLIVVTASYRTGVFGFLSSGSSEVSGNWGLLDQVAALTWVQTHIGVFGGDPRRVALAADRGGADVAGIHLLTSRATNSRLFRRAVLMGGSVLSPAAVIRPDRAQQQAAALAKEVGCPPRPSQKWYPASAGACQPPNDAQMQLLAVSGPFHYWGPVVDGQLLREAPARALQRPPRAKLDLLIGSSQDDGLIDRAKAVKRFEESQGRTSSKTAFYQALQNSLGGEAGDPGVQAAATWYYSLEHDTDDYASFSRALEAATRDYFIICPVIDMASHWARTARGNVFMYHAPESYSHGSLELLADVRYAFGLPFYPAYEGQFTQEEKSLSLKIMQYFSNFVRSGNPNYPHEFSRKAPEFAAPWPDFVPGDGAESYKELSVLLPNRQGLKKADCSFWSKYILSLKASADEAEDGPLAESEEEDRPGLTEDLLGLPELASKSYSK

CBA (Codium barbatum agglutinin), purified from Codium barbatum
inhibition of hemagglutination activity (trypsin-treated rabbit red blood cells): 31 µg/mL
